Test results as given in patent US12679878B2, “CRF2 receptor agonists and their use in therapy” (SANOFI, priority 2020, dated 2026).
Starred links: 1 amine or outer side, 2 acyl side, 3 side chain; linkers in the order of their positions; H or OH if unused. Non-standard residues stand in square brackets, D forms with d. Groups on a side chain read outwards from the residue. No end group written: not given here. *: point of attachment. C18 diacid = O=C(O)CCCCCCCCCCCCCCCCC(=O)*; C16 diacid = O=C(O)CCCCCCCCCCCCCCC(=O)*; γGlu = O=C(O)[C@H](CCC(=O)[*:2])N[*:1]; AEEA = NCCOCCOCC(=O)O; Aib = CC(C)(N)C(=O)O

T1: CRF1R receptor (anti-target) (UniProt P34998 24-415, limits assumed)
T1 sequence (looked up): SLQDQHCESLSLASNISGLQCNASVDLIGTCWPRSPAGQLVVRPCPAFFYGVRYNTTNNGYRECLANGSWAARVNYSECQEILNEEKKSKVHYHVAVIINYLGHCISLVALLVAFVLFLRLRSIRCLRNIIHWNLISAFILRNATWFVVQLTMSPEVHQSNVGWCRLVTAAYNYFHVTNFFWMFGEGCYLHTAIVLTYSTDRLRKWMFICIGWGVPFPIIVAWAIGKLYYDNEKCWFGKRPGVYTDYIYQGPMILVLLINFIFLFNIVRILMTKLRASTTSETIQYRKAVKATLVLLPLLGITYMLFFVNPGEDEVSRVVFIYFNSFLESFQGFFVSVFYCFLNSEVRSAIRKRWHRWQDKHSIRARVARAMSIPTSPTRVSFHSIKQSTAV


The binders below were run against T1, CRF1R receptor (anti-target) (assay: cell-based or functional assay).

Row | EC50 [nM] 0% HSA (cAMP, HTRF) | Emax (%) (100% = Sauvagine at 100 nM) | Binder
1 | > 100 nM | 43.8% | IVLSLD[dV]PIKLK([γGlu-C16 diacid])QILLKQERQK[Aib]QREQAEKNKQILAQV-NH2 (N-terminus assumed; SMILES CC[C@H](C)[C@H](N)C(=O)N[C@H](C(=O)N[C@@H](CC(C)C)C(=O)N[C@@H](CO)C(=O)N[C@@H](CC(C)C)C(=O)N[C@@H](CC(=O)O)C(=O)N[C@@H](C(=O)N1CCC[C@H]1C(=O)N[C@H](C(=O)N[C@@H](CCCCN)C(=O)N[C@@H](CC(C)C)C(=O)N[C@@H](CCCCNC(=O)CC[C@H](NC(=O)CCCCCCCCCCCCCCC(=O)O)C(=O)O)C(=O)N[C@@H](CCC(N)=O)C(=O)N[C@H](C(=O)N[C@@H](CC(C)C)C(=O)N[C@@H](CC(C)C)C(=O)N[C@@H](CCCCN)C(=O)N[C@@H](CCC(N)=O)C(=O)N[C@@H](CCC(=O)O)C(=O)N[C@@H](CCCNC(=N)N)C(=O)N[C@@H](CCC(N)=O)C(=O)N[C@@H](CCCCN)C(=O)NC(C)(C)C(=O)N[C@@H](CCC(N)=O)C(=O)N[C@@H](CCCNC(=N)N)C(=O)N[C@@H](CCC(=O)O)C(=O)N[C@@H](CCC(N)=O)C(=O)N[C@@H](C)C(=O)N[C@@H](CCC(=O)O)C(=O)N[C@@H](CCCCN)C(=O)N[C@@H](CC(N)=O)C(=O)N[C@@H](CCCCN)C(=O)N[C@@H](CCC(N)=O)C(=O)N[C@H](C(=O)N[C@@H](CC(C)C)C(=O)N[C@@H](C)C(=O)N[C@@H](CCC(N)=O)C(=O)N[C@H](C(N)=O)C(C)C)[C@@H](C)CC)[C@@H](C)CC)[C@@H](C)CC)C(C)C)C(C)C) [peptide of SEQ ID NO: 187]
2 | > 100 nM | 15% | IVLSLD[dV]PIKLK([γGlu-C16 diacid])QILLKQERQKK[Aib]RQKAEKNKQILAQV-NH2 (N-terminus assumed; SMILES CC[C@H](C)[C@H](N)C(=O)N[C@H](C(=O)N[C@@H](CC(C)C)C(=O)N[C@@H](CO)C(=O)N[C@@H](CC(C)C)C(=O)N[C@@H](CC(=O)O)C(=O)N[C@@H](C(=O)N1CCC[C@H]1C(=O)N[C@H](C(=O)N[C@@H](CCCCN)C(=O)N[C@@H](CC(C)C)C(=O)N[C@@H](CCCCNC(=O)CC[C@H](NC(=O)CCCCCCCCCCCCCCC(=O)O)C(=O)O)C(=O)N[C@@H](CCC(N)=O)C(=O)N[C@H](C(=O)N[C@@H](CC(C)C)C(=O)N[C@@H](CC(C)C)C(=O)N[C@@H](CCCCN)C(=O)N[C@@H](CCC(N)=O)C(=O)N[C@@H](CCC(=O)O)C(=O)N[C@@H](CCCNC(=N)N)C(=O)N[C@@H](CCC(N)=O)C(=O)N[C@@H](CCCCN)C(=O)N[C@@H](CCCCN)C(=O)NC(C)(C)C(=O)N[C@@H](CCCNC(=N)N)C(=O)N[C@@H](CCC(N)=O)C(=O)N[C@@H](CCCCN)C(=O)N[C@@H](C)C(=O)N[C@@H](CCC(=O)O)C(=O)N[C@@H](CCCCN)C(=O)N[C@@H](CC(N)=O)C(=O)N[C@@H](CCCCN)C(=O)N[C@@H](CCC(N)=O)C(=O)N[C@H](C(=O)N[C@@H](CC(C)C)C(=O)N[C@@H](C)C(=O)N[C@@H](CCC(N)=O)C(=O)N[C@H](C(N)=O)C(C)C)[C@@H](C)CC)[C@@H](C)CC)[C@@H](C)CC)C(C)C)C(C)C) [peptide of SEQ ID NO: 189]
3 | > 100 nM | 4% | IVLSLDVPIGLK([AEEA-AEEA-γGlu-C18 diacid])QILLKQERQKK[Aib]REQAETNAQILAQV-NH2 (N-terminus assumed; SMILES CC[C@H](C)[C@H](N)C(=O)N[C@H](C(=O)N[C@@H](CC(C)C)C(=O)N[C@@H](CO)C(=O)N[C@@H](CC(C)C)C(=O)N[C@@H](CC(=O)O)C(=O)N[C@H](C(=O)N1CCC[C@H]1C(=O)N[C@H](C(=O)NCC(=O)N[C@@H](CC(C)C)C(=O)N[C@@H](CCCCNC(=O)COCCOCCNC(=O)COCCOCCNC(=O)CC[C@H](NC(=O)CCCCCCCCCCCCCCCCC(=O)O)C(=O)O)C(=O)N[C@@H](CCC(N)=O)C(=O)N[C@H](C(=O)N[C@@H](CC(C)C)C(=O)N[C@@H](CC(C)C)C(=O)N[C@@H](CCCCN)C(=O)N[C@@H](CCC(N)=O)C(=O)N[C@@H](CCC(=O)O)C(=O)N[C@@H](CCCNC(=N)N)C(=O)N[C@@H](CCC(N)=O)C(=O)N[C@@H](CCCCN)C(=O)N[C@@H](CCCCN)C(=O)NC(C)(C)C(=O)N[C@@H](CCCNC(=N)N)C(=O)N[C@@H](CCC(=O)O)C(=O)N[C@@H](CCC(N)=O)C(=O)N[C@@H](C)C(=O)N[C@@H](CCC(=O)O)C(=O)N[C@H](C(=O)N[C@@H](CC(N)=O)C(=O)N[C@@H](C)C(=O)N[C@@H](CCC(N)=O)C(=O)N[C@H](C(=O)N[C@@H](CC(C)C)C(=O)N[C@@H](C)C(=O)N[C@@H](CCC(N)=O)C(=O)N[C@H](C(N)=O)C(C)C)[C@@H](C)CC)[C@@H](C)O)[C@@H](C)CC)[C@@H](C)CC)C(C)C)C(C)C) [peptide of SEQ ID NO: 156]
4 | > 100 nM | 4.9% | IVLSLDVPIKLK([AEEA-AEEA-γGlu-C18 diacid])QILLKQERQKK[Aib]REQAETNKRILERV-NH2 (N-terminus assumed; SMILES CC[C@H](C)[C@H](N)C(=O)N[C@H](C(=O)N[C@@H](CC(C)C)C(=O)N[C@@H](CO)C(=O)N[C@@H](CC(C)C)C(=O)N[C@@H](CC(=O)O)C(=O)N[C@H](C(=O)N1CCC[C@H]1C(=O)N[C@H](C(=O)N[C@@H](CCCCN)C(=O)N[C@@H](CC(C)C)C(=O)N[C@@H](CCCCNC(=O)COCCOCCNC(=O)COCCOCCNC(=O)CC[C@H](NC(=O)CCCCCCCCCCCCCCCCC(=O)O)C(=O)O)C(=O)N[C@@H](CCC(N)=O)C(=O)N[C@H](C(=O)N[C@@H](CC(C)C)C(=O)N[C@@H](CC(C)C)C(=O)N[C@@H](CCCCN)C(=O)N[C@@H](CCC(N)=O)C(=O)N[C@@H](CCC(=O)O)C(=O)N[C@@H](CCCNC(=N)N)C(=O)N[C@@H](CCC(N)=O)C(=O)N[C@@H](CCCCN)C(=O)N[C@@H](CCCCN)C(=O)NC(C)(C)C(=O)N[C@@H](CCCNC(=N)N)C(=O)N[C@@H](CCC(=O)O)C(=O)N[C@@H](CCC(N)=O)C(=O)N[C@@H](C)C(=O)N[C@@H](CCC(=O)O)C(=O)N[C@H](C(=O)N[C@@H](CC(N)=O)C(=O)N[C@@H](CCCCN)C(=O)N[C@@H](CCCNC(=N)N)C(=O)N[C@H](C(=O)N[C@@H](CC(C)C)C(=O)N[C@@H](CCC(=O)O)C(=O)N[C@@H](CCCNC(=N)N)C(=O)N[C@H](C(N)=O)C(C)C)[C@@H](C)CC)[C@@H](C)O)[C@@H](C)CC)[C@@H](C)CC)C(C)C)C(C)C) [peptide of SEQ ID NO: 152]
